Laboratory results reported in paper PMC3072145.

Tests used:
Hfq wt = Hfq wt (Escherichia coli, UniProt P0A6X3 1-102); experiment: analytical ultracentrifugation
Hfq-NA = Hfq-NA (Escherichia coli, UniProt P0A6X3 1-102); experiment: analytical ultracentrifugation

AAAAAAAAAAAAAAAAAA (ssRNA) [FAM-rA18]
binding result (Hfq wt): binds | binding result (Hfq-NA): binds
